The source of these data is patent US20070212700A1, “Methods of using and analyzing biological sequence data” (THE BOARD OF REGENTS OF THE UNIVERSITY OF TEXAS SYSTEM, priority 2005, published 2007).

This assay has as its target PPxY-containing peptide. The experiment in a line: isothermal titration calorimetry, ratio of equilibrium dissociation constants (mutant vs wild-type Nedd4.3 WW domain).

For the substance “Nedd4.3 WW domain L3A mutant (from UniProt Q62940 459-492)”, the fold effect on peptide binding relative to wild-type was found to be 5.15 fold.
